For experiment [1], the target named is HLA-A*31:01. Description: IEDB peptide-MHC binding, purified MHC/direct/fluorescence; filed as Kd, often an IC50 or EC50 that approximates it; ≥ and ≤ were set here for values at or beyond the usual limits of such assays.
Experiment [2] addresses HLA-A*32:01. In words: IEDB peptide-MHC binding, purified MHC/competitive/radioactivity; filed as Kd, often an IC50 or EC50 that approximates it; ≥ and ≤ were set here for values at or beyond the usual limits of such assays.
The target in experiment [3] is HLA-A*30:01. The experiment is described as above.
Experiment [4] addresses HLA-A*02:01. Description: IEDB peptide-MHC binding, purified MHC/competitive/fluorescence; ≥ and ≤ were set here for values at or beyond the usual limits of such assays.
Experiment [5] addresses HLA-A*24:02. Described as above.
Experiment [6] deals with HLA-A*23:01. In words: IEDB peptide-MHC binding, purified MHC/competitive/radioactivity; filed as Kd, often an IC50 or EC50 that approximates it; ≥ and ≤ were set here for values at or beyond the usual limits of such assays. The settings on record: source organism: Dengue virus 2 Jamaica/1409/1983.
The target of experiment [7] is HLA-A*26:01. The experiment is described as above.
Experiment [8] has as its target HLA-A*01:01. In words: IEDB peptide-MHC binding, purified MHC/direct/fluorescence; filed as Kd, often an IC50 or EC50 that approximates it; ≥ and ≤ were set here for values at or beyond the usual limits of such assays.
The target in experiment [9] is HLA-A*03:01. Description: IEDB peptide-MHC binding, purified MHC/competitive/radioactivity; filed as Kd, often an IC50 or EC50 that approximates it; ≥ and ≤ were set here for values at or beyond the usual limits of such assays.
Experiment [10] deals with HLA-A*11:01. The description is as above.
The target in experiment [11] is HLA-A*30:02. The description is as above. The settings on record: source organism: Dengue virus 1 Brazil/97-11/1997.
For experiment [12], the target named is HLA-A*03:01. In words: IEDB peptide-MHC binding, purified MHC/direct/fluorescence; filed as Kd, often an IC50 or EC50 that approximates it; ≥ and ≤ were set here for values at or beyond the usual limits of such assays. The settings on record: source organism: Cowpox virus.
In experiment [13] the target is HLA-A*02:01. Described as above. As to conditions: source organism: SARS-CoV1.
Experiment [14] has as its target HLA-A*11:01. The experiment is described as above. The settings on record: source organism: SARS-CoV1.
Experiment [15] concerns the target HLA-A*69:01. The experiment is described as above. As to conditions: source organism: SARS-CoV1.
Experiment [16] addresses HLA-A*02:02. In words: IEDB peptide-MHC binding, purified MHC/competitive/radioactivity; filed as Kd, often an IC50 or EC50 that approximates it; ≥ and ≤ were set here for values at or beyond the usual limits of such assays. As to conditions: source organism: SARS coronavirus Tor2.
The target of experiment [17] is HLA-A*02:03. Described as above. As to conditions: source organism: SARS coronavirus Tor2.
The target in experiment [18] is HLA-A*02:06. Described as above. The settings on record: source organism: SARS coronavirus Tor2.
In experiment [19] the target is HLA-A*31:01. Described as above. The settings on record: source organism: Mammarenavirus machupoense.
The target of experiment [20] is HLA-A*33:01. Described as above. As to conditions: source organism: Mammarenavirus machupoense.
For experiment [21], the target named is HLA-A*68:01. Described as above. As to conditions: source organism: Mammarenavirus machupoense.
For experiment [22], the target named is HLA-B*35:01. Described as above. The settings on record: source organism: Dengue virus 3 Martinique/1243/1999.
The mark [23] stands for this setting: source organism: Vaccinia virus WR.
The mark [24] stands for this setting: source organism: Dengue virus 3 Martinique/1243/1999.
Where [25] appears, read: source organism: Zaire ebolavirus.
[26] abbreviates: source organism: Dengue virus 2 Jamaica/1409/1983.
The mark [27] stands for this setting: source organism: Dengue virus 1 Brazil/97-11/1997.
[28] abbreviates: source organism: Vaccinia virus Copenhagen.
The mark [29] stands for this setting: source organism: Sudan ebolavirus.
The mark [30] stands for this setting: source organism: Mammarenavirus machupoense.

In general, Kd refers to the equilibrium constant for the complex coming apart. The IC50 is the concentration at which inhibition is half-maximal. High values mean weaker potency, low ones greater potency.

Take KCYGVSATK: in [1] (source organism: SARS-CoV1), the equilibrium dissociation constant (Kd) was found to be 3520 nM.

Turning to STINICLPY, in [2] (setting [23]), the dissociation constant (Kd) amounted to 31.5 nM.

Consider AIMMILSTI, for which the dissociation constant Kd in [2] (setting [23]) was found to be 2.45 nM.

Consider LLYFKVFGI, for which, in experiment [2] (setting [23]), the Kd was at least 37400 nM.

Turning to QRKKTGKPSI, in experiment [3] (setting [24]), the Kd came out at 1150 nM.

Sequence HHRRTDNDS gave an IC50 in [4] (setting [25]) of at least 72100 nM.

As to ELSFTVVSN, the values for the IC50 in experiment [4] (setting [25]) and in experiment [5] (setting [25]) were at least 220000 nM and at least 119000 nM, respectively.

IHHASAPLT: the IC50 in experiment [4] (setting [25]) was at least 378000 nM.

Take EVEDYGFGVF: the dissociation constant (Kd) in experiment [6] was found to be 1000 nM; in [7] (setting [26]) it was 132 nM.

In experiment [8] (source organism: Francisella tularensis subsp. holarctica LVS), NSDEQSLEY returned an equilibrium dissociation constant (Kd) of at most 1 nM.

Regarding ALLATSIFK, the dissociation constant Kd in [9] (setting [27]) worked out at 4.12 nM; in experiment [10] (setting [27]) it was 23.4 nM; in experiment [3] (setting [27]) it was 544 nM.

In [4] (setting [25]), KLGLITNTI showed an IC50 of 1920 nM. This lies in the single-digit micromolar range.

As for DKLSSTNQL, in experiment [5] (setting [25]), the IC50 is 16200 nM.

With AWNIWEVEDY, the equilibrium dissociation constant (Kd) in experiment [11] turned out to be 1880 nM.

Take RTSFAFQAI: in [2] (setting [23]), the Kd stood at 3.78 nM.

In the case of ATARSSPEK, in experiment [3] (setting [23]), the dissociation constant (Kd) is 0.584 nM.

Consider SWLITSGFR, for which the Kd in experiment [12] was at least 20000 nM; in [1] (source organism: Cowpox virus), 1100 nM.

Regarding GLVSKFMSN, the IC50 in [4] (setting [23]) worked out at 13800 nM.

Turning to ETTKRDLGM, the Kd in [7] (setting [24]) turned out to be 1450 nM.

Turning to GSKASCVLK, the Kd in experiment [3] (setting [23]) worked out at 265 nM.

Regarding SSNNVSSSI, the Kd in [2] (setting [28]) was 155 nM.

KVVRVQRPTP: the Kd in experiment [3] (setting [26]) worked out at 122 nM.

In turn, STFIMLEGE gave an IC50 in experiment [4] (setting [28]) of at least 434000 nM.

As for AIKVLKGFK, the dissociation constant (Kd) was 157 nM in [9] (setting [24]) and 1390 nM in experiment [3] (setting [24]).

Turning to TFKDESIFI, the concentration for half-maximal inhibition (IC50) in experiment [5] (setting [28]) amounted to 328 nM.

Turning to CLRCSKLNL, the Kd in experiment [3] (setting [23]) worked out at 482 nM.

As for LTKRFSLGM, the equilibrium dissociation constant (Kd) in experiment [7] (setting [26]) was at least 31800 nM.

For the sequence RLLLNRFTM, the dissociation constant Kd in experiment [2] (setting [24]) turned out to be 33.2 nM.

As for EIQLTDYGAL, the dissociation constant (Kd) in [7] (setting [27]) was determined as 5580 nM.

As for FVDGVPFVV, the Kd in experiment [8] (source organism: SARS-CoV1) was 1410 nM; in experiment [13], 124 nM; in experiment [14], at least 23100 nM; in experiment [15] it was 23.3 nM; in [16], 9.62 nM; in experiment [17], 85.9 nM. The Kd in experiment [18] stood at 0.908 nM.

The sequence INQIIHDFI registered a half-maximal inhibitory concentration (IC50) in [5] (setting [29]) of 2770 nM.

Consider LTAGLSVQQ, for which the concentration for half-maximal inhibition (IC50) in experiment [4] (setting [25]) is at least 298000 nM.

In the case of RTAPPSLYGR, the Kd came out at 16.2 nM in experiment [9] (setting [30]); 8.92 nM in experiment [10] (setting [30]); 759 nM in [3] (setting [30]); 1.59 nM in [19]; 2390 nM in experiment [20]; 10.2 nM in experiment [21].

TITETAATI: the IC50 in [4] (setting [29]) stood at 44900 nM; in experiment [5] (setting [29]), 48400 nM.

In turn, MLTPINEEA yielded a 50% inhibitory concentration (IC50) in [4] (setting [25]) of 780 nM.

As for SSECQGEML, the Kd in experiment [8] (source organism: Homo sapiens) is 4760 nM.

For PFGDSYIII, the dissociation constant Kd in [6] came out at 3960 nM.

With IDSMFLMTA, the 50% inhibitory concentration (IC50) in [4] (source organism: Variola virus) came to 28700 nM.

In the case of RTENFVLSI, in experiment [2] (setting [23]), the dissociation constant (Kd) came out at 1.62 nM.

Turning to RDKFRKSSF, the half-maximal inhibitory concentration (IC50) in experiment [5] (setting [29]) is 35700 nM.

With EFLRYLLFG, the IC50 in experiment [5] (source organism: Vaccinia virus) worked out at 17800 nM.

In the case of LPEYGTLGLE, the dissociation constant (Kd) in experiment [22] was 4480 nM.

Turning to RTRYLPSLV, the Kd in [3] (setting [28]) was determined as 0.485 nM.

The values are drawn from the Immune Epitope Database (IEDB).
